For one substance, Kd results are on record in patent US20150086562A1.

This experiment deals with recombinant CD22 extracellular domain. Nature of the experiment: The sheet does not state the method. The column 'KD (nM)' stands beside the confocal data. The values largely repeat FIGURE 18 (SPR on recombinant CD22 extracellular domain), so the target form is taken from there.
recombinant CD22 extracellular domain, sequence (chain, as listed by the source limits assumed): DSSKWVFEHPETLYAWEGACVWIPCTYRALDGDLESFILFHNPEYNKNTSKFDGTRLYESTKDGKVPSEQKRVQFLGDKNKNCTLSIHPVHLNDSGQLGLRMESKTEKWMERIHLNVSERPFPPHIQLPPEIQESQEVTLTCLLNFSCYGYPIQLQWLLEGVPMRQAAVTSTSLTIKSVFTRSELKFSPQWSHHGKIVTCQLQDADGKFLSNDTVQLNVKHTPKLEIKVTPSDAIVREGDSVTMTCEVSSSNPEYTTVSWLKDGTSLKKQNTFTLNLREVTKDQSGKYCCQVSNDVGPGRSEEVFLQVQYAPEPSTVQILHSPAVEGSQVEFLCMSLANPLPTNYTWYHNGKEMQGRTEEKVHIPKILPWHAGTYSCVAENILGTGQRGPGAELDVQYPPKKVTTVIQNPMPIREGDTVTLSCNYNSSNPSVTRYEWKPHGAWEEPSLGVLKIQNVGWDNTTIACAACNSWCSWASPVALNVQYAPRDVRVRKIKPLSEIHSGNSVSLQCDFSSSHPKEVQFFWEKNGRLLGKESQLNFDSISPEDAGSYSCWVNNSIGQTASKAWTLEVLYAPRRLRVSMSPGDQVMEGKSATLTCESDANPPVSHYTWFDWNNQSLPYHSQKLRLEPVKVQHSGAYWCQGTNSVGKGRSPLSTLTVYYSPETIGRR

By Kd is commonly meant a measure of binding affinity in units of concentration. On to LL2 (mouse Mab) (antibody), for which the Kd stood at 20 nM.
